Where a chain is given by its changes, count along the chain named. Names and notes keep the numbering of the source.
Assays:
crystal structure = biological target: the molecule itself; test: crystal structure
cross-linking = biological target: the molecule itself; test: cross-linking
SEC = biological target: the molecule itself; test: SEC
SAXS = biological target: the molecule itself; test: SAXS
[1] = biological target: Rad50 dCC (in MRN);Mre11;Nbs1 (Homo sapiens;Homo sapiens;Homo sapiens, UniProt Q92878;P49959;O60934 1-1312;1-708;1-754, del614-668;del702-750||); test: EMSA
[2] = biological target: Rad50 WT (in MRN);Mre11;Nbs1 (Homo sapiens;Homo sapiens;Homo sapiens, UniProt Q92878;P49959;O60934 1-1312;1-708;1-754, ||); test: EMSA

B1: human Rad50 hook and coiled-coil domain, HsRad50HCC182 (residues 585 to 766) (domain or fragment, UniProt Q92878 585-766, looked up)
chain: KEINQTRDRLAKLNKELASSEQNKNHINNELKRKEEQLSSYEDKLFDVCGSQDFESDLDRLKEEIEKSSKQRAMLAGATAVYSQFITQLTDENQSCCPVCQRVFQTEAELQEVISDLQSKLRLAPDKLKSTESELKKKEKRRDEMLGLVPMRQSIIDLKEKEIPELRNKLQNVNRDIQRLKN
B1: binds (crystal structure).

B2: HsRad50HCC182 K599C (domain or fragment, human, UniProt Q92878 585-766, looked up)
chain: B1 chain with K15C
B2: binds (cross-linking).

B3: Rad50-48 (S679R, P682R) Rad50HCC182 K599C (domain or fragment, human, UniProt Q92878 585-766, looked up)
chain: B1 chain with K15C, S95R, P98R
B3: binds (cross-linking).

B4: HsRad50HCC182 S738C (domain or fragment, human, UniProt Q92878 585-766, looked up)
chain: B1 chain with S154C
B4: binds (cross-linking).

B5: Rad50ΔCC (Rad50HCC182 with residues 614-668 and 702-750 deleted) (domain or fragment, human, UniProt Q92878 585-766, looked up)
chain: KEINQTRDRLAKLNKELASSEQNKNHINNFITQLTDENQSCCPVCQRVFQTEAELQEVISDLRNKLQNVNRDIQRLKN
B5: binds (SEC).

B6: Rad50ΔCC K599C (domain or fragment, human, UniProt Q92878 585-766, looked up)
chain: B5 chain with K15C
B6: binds (cross-linking).

B7: HsRad50HCC construct that contains the two interfaces (residues 635 to 730) (domain or fragment, human, UniProt Q92878 635-730, looked up)
chain: SQDFESDLDRLKEEIEKSSKQRAMLAGATAVYSQFITQLTDENQSCCPVCQRVFQTEAELQEVISDLQSKLRLAPDKLKSTESELKKKEKRRDEML
B7: binds (SAXS).

B8: 83-mer dsDNA (dsDNA)
DNA 1: TTGATAAGAGGTCATTTTTGCGGATGGCTTAGAGCTTAATTGCTGAATCTGGTGCTGTAGCTCAACATGTTTTAAATATGCAA
DNA 2: TTGCATATTTAAAACATGTTGAGCTACAGCACCAGATTCAGCAATTAAGCTCTAAGCCATCCGCAAAAATGACCTCTTATCAA
B8: binds [1]; binds [2].

Reference: publication PMC5625350 (Nature structural & molecular biology, 2017)
